Test [1] addresses T1, biotinylated mouse EpoR-Fc protein (muEpoR-Fc) (mouse, UniProt P14753 25-249, limits assumed, biotinylated).
T1 construct: also called mouse EpoR (muEpoR); not shown: Fc part
T1 sequence (looked up): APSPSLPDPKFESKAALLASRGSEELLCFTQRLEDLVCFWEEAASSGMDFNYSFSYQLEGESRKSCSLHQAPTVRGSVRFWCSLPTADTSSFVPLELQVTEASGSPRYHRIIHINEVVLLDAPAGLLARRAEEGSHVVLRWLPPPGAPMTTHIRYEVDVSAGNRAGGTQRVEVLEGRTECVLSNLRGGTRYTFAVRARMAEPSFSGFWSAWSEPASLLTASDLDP
In words: ELISA, antibody coated at 1 µg/ml, biotinylated muEpoR-Fc at 5 µg/ml, streptavidin-HRP.

Test [2] addresses T2, huEpoR expressed on the cell surface (UT-7 cells) (human, UniProt P19235 25-508).
T2 sequence (looked up): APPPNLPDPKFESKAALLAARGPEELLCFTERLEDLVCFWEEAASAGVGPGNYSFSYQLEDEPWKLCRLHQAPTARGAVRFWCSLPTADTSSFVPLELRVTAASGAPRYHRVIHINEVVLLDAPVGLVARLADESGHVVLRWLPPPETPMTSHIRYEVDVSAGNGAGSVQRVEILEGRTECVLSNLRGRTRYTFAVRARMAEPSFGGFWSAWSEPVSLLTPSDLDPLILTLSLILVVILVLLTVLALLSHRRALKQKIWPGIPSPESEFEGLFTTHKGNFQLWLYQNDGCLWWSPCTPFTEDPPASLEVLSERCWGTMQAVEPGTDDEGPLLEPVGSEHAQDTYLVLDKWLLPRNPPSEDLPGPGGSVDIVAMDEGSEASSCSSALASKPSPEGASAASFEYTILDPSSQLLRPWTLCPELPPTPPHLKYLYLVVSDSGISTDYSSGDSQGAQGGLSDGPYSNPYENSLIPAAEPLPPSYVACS
Kind of test: cell-based or functional assay.

A further test addresses T3, mouse EpoR (muEpoR) (mouse, UniProt P14753 25-249, limits assumed).
T3 sequence (looked up): T1 sequence (looked up)
Kind of test: ELISA on coated muEpoR, scFv-Fc at 5 µg/ml (Example 17). A general note: An ELISA detects its analyte on a solid surface through an enzyme-linked reagent.

Test [3] deals with T4, huEpoR protein (soluble human erythropoietin receptor) (human, UniProt P19235 25-250, limits assumed).
T4 construct: also called soluble huEpoR; biotinylated huEpoR
T4 sequence (looked up): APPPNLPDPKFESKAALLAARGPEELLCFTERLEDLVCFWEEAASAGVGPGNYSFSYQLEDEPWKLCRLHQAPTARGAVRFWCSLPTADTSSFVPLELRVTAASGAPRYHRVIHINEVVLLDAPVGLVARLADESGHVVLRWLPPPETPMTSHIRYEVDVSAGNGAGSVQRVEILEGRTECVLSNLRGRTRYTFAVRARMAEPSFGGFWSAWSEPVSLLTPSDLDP
In words: SPR, Biacore T100; scFv-Fc captured on anti-human IgG Fc CM5 chip, EpoR as analyte; 1:1 fit.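 Further: measured at 25 °C in HBS-EP buffer with 0.1 mg/ml BSA, flowed at 50 µl/min, 1 min association then dissociation (10 min human, 5 min cyno EpoR).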 For orientation: Surface plasmon resonance follows binding to a sensor surface in real time, without labels.

Test [4] has as its target T5, cynomolgus monkey EpoR (cynoEpoR) (cynomolgus monkey, UniProt A0A2K5WKK4 25-250).
T5 construct: Soluble protein (coated in ELISA, analyte in SPR)
T5 sequence: T4 sequence (looked up) with A19V, G47A, G49S, G51D, Q58H, V112I, S135G, V138I, T148A
In words: SPR, Biacore T100; scFv-Fc captured on anti-human IgG Fc CM5 chip, EpoR as analyte; steady-state fit; steady-state fit; cyno EpoR.

Test [5] concerns the target T5, cynomolgus monkey EpoR (cynoEpoR). In words: SPR, Biacore T100; scFv-Fc captured on anti-human IgG Fc CM5 chip, EpoR as analyte; 1:1 fit.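 Further: measured at 25 °C in HBS-EP buffer with 0.1 mg/ml BSA, flowed at 50 µl/min, 1 min association then dissociation (10 min human, 5 min cyno EpoR).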

Changes are numbered by the printed parent chain.

This is an account of results in patent US20080102065A1 (published 2008).

What is called Kd is the free concentration of one partner at which half of the binding sites on the other are occupied at equilibrium, for simple one-to-one binding. As a reminder, the koff is a measure of how fast the partners let go of each other. For orientation: kon means the rate constant with which the complex forms.

B1: clone 30 IgG2 protein (antibody, V domains shown)
VH: QVQLQESGPGLVKPSQTLSLTCAISGDSVSSNSAAWNWIRQSPSRGLEWLGRTYYRSKWYNDYAVSVKSRMTIKADTSKNQFSLQLNSVTPEDTAVYYCARDEGPLDYWGQGTLVTVSA
VL: QAVLTQPSSVSGAPGQRVTISCTGSSSNLGTGYDVHWYQQLPGTAPKLLIYGNSNRPSGVPDRFSGSKSDTSGLLAITGLQAEDEATYYCQSYDFSLSAMVFGGGTKVTVL
notes: Human IgG2 (VH in an IgG2 heavy chain expression vector; light chain constant type matches the variable light chain isotype)
For the molecule B1, in test [1], the binding result was “binds”.

B2: Mxb 34 (clone 34 scFv-Fc protein) (Fc fusion)
VH: QVQLQQSGAEVKKPGASVKVSCKASGYTFSGYYMHWVRQAPGQGLEWMGWINPNSGSTNYAQKFLGRVTMTRDTSISTAYMELSSLRSDDTAVYYCARGHSGDYFDYWGQGTLVTVSA
VL: EIVLTQSPSSLSASVGDRVTITCRASQSVSSWLAWYQQRPGQAPKLLIYAARLRGGGPSRFSGSGSGTEFTLTISSLQPEDFATYFCQQSYSTPISFGGGTKLEIK
notes: Tested as scFv-Fc (maxibody) with an Fc derived from human IgG1
As to B2, in test [2], the “Average EC50 (nM), UT-7-luciferase (STAT5 reporter) assay” value (shortened to “Average EC50 (nM), UT-7-luciferase”) turned out to be 0.11 nM and the “Ratio (EC50 of Epo / EC50 of the scFv-Fc), UT-7-luciferase assay” value amounted to 0.088. Further, the binding result in the test with mouse EpoR (muEpoR) was “no binding (tested: 5 µg/ml)”. Also, in test [3], the dissociation constant Kd amounted to 378 nM, the koff came out at 0.203 s⁻¹ and the kon amounted to 536000 M⁻¹ s⁻¹. For the same molecule, the Kd in test [4] was 5810 nM.

B3: Mxb 318 (clone 318 scFv-Fc protein) (Fc fusion)
VH: QVQLVESGGGLVQPGGSLRLSCAVSGFTFSKYWMTWVRQAPGKGLEWVANIKPDGSEKYYVESVKGRFTISRDNAKNSVYLQMNSVRAEDTAVYYCARVSRGGSFSDWGQGTLVTVSS
VL: QSVLTQPPSASGSPGQSVTISCTGTSSDVGGYNYVSWYQQHPGRAPKLIIYEVSKRPSGVPDRFSGSKSGNTASLTVSGLQADDEADYYCNSYAGSIYVFGSGTKVTVL
notes: as for B2
For the molecule B3, in test [2], the “Average EC50 (nM), UT-7-luciferase” value was 0.0154 nM and the “Ratio (EC50 of Epo / EC50 of the scFv-Fc), UT-7-luciferase assay” value stood at 0.623. Moreover, in the test with mouse EpoR (muEpoR), the binding result was “no binding (tested: 5 µg/ml)”. In test [3], this molecule yielded a Kd of 847 nM, a koff of 0.558 s⁻¹ and a kon of 659000 M⁻¹ s⁻¹. In test [4], this molecule yielded a Kd of 4890 nM.

B4: clone 5 IgG2 protein (antibody, V domains shown)
VH: B3 VH with Q1E, V24A, K31S, T35S, E62D, V86L, F105Y
VL: QSALTQPASVSGSPGQSITISCTGTSSDVGGYIYVSWYQQHPGKAPKLMIYDVSRRPSGISDRFSGSKSGNTASLTISGLQAEDEADYYCNSYTTLSTWLFGGGTKVTVL
notes: Human IgG2 (VH in an IgG2 heavy chain expression vector; light chain constant type matches the variable light chain isotype); also called IgG2 5; IgG25
Turning to B4, in test [1], the binding result was “binds”.

B5: clone 2 IgG2 protein (antibody, V domains shown)
VH: B3 VH with Q1E, E6Q, V24A, K31S, T35S, E62D, V86L, F105Y
VL: QSVLTQPPSASGSPGQSVTISCTGTSSDVGGYNYVSWYQQHPGKAPKLMIYEVSKRPSGVPDRFSGSKSGNTASLTVSGLQPEDEADYYCSSYAGRNWVFGGGTQLTVL
notes: Human IgG2 (VH in an IgG2 heavy chain expression vector; light chain constant type matches the variable light chain isotype); also called IgG2 2; IgG22
On to B5, for which the binding result in test [1] is listed as “binds”.

B6: clone 7 IgG2 protein (antibody, V domains shown)
VH: B3 VH with Q1E, E6Q, V24A, K31S, T35S, E62D, V86L, F105Y, Q110K
VL: QSALTQPASVSGSPGQSIIISCTGTRSDIGGYNYVSWYQHHPGRAPKLIIFDVNNRPSGVSHRFSGSKSGNTASLTISGLQAEDEADYYCNSFTDSRTWLFGGGTKLTVL
notes: as for B1
Consider B6, for which the binding result in test [1] is given as “binds”.

B7: Mxb 330 (clone 330 scFv-Fc protein) (Fc fusion)
VH: B3 VH with Q1E
VL: QSALTQPPSASGSPGQSVTISCTGTSSDVGAYNYVSWYQQHPGKAPKLMIYEVARRPSGVPDRFSGSKSGNTASLTVSGLQAEDEADYYCSSYAGSNNFAVFGRGTKLTVL
notes: as for B2
For the molecule B7, in test [2], the “Average EC50 (nM), UT-7-luciferase” value came out at 0.0075 nM and the “Ratio (EC50 of Epo / EC50 of the scFv-Fc), UT-7-luciferase assay” value came to 1.28. In addition, the binding result in the test with mouse EpoR (muEpoR) is “no binding (tested: 5 µg/ml)”. In test [3], this molecule came in with a dissociation constant Kd of 45.4 nM, a koff of 0.0373 s⁻¹ and a kon of 822000 M⁻¹ s⁻¹. Further, in test [5], the Kd was 890 nM, the koff came out at 0.0965 s⁻¹ and the kon is 108000 M⁻¹ s⁻¹.

B8: clone 10 IgG2 protein (antibody, V domains shown)
VH: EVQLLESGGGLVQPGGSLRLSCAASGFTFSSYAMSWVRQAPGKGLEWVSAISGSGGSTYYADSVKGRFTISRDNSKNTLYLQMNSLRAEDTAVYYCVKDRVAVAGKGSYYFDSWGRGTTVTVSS
VL: QSVLTQPPSVSEAPGQRVTIACSGSSSNIGNNAVSWYQQLPGKAPTLLIYYDNLLPSGVSDRFSGSKSGTSASLAISGLQSEDEADYYCAAWDDSLNDWVFGGGTKVTVL
notes: as for B1
As to B8, in test [1], the binding result is listed as “binds”.
